Test results as given in article PMC11480844 (2024).

Target: T1, peptide on HLA-B*07:02 (human)
T1 peptide: VPSVWRSSL
Experiment: activation reporter or marker

B1: R23 (TCR, V domains shown)
Valpha: KQEVTQIPAALSVPEGENLVLNCSFTDSAIYNLQWFRQDPGKGLTSLLLIQSSQREQTSGRLNASLDKSSGRSTLYIAASQPGDSATYLCAVRPQGGSEKLVFGKGTKLTVNP
Vbeta: EAQVTQNPRYLITVTGKKLTVTCSQNMNHEYMSWYRQDPGLGLRQIYYSMNVEVTDKGDVPEGYKVSRKEKRNFPLILESPSPNQTSLYFCASTVGGTQYFGPGTRLTVL
  binding result: recognises

B2: R21 (TCR, V domains shown)
Valpha: AQKVTQAQTEISVVEKEDVTLDCVYETRDTTYYLFWYKQPPSGELVFLIRRNSFDEQNEISGRYSWNFQKSTSSFNFTITASQVVDSAVYFCALGTYGNNRLAFGKGNQVVVIP
Vbeta: NAGVTQTPKFRILKIGQSMTLQCAQDMNHNYMYWYRQDPGMGLKLIYYSVGAGITDKGEVPNGYNVSRSTTEDFPLRLELAAPSQTSVYFCASTKGGPSSYEQYFGPGTRLTVT
  binding result: recognises

B3: R28 (TCR, V domains shown)
Valpha: AQTVTQSQPEMSVQEAETVTLSCTYDTSESDYYLFWYKQPPSRQMILVIRQEAYKQQNATENRFSVNFQKAAKSFSLKISDSQLGDAAMYFCAYRSAGNQGAQKLVFGQGTRLTINP
Vbeta: ETGVTQSPTHLIKTRGQQVTLRCSSQSGHNTVSWYQQALGQGPQFIFQYYREEENGRGNFPPRFSGLQFPNYSSELNVNALELDDSALYLCASSLGRGTYEQYFGPGTRLTVT
  binding result: recognises

B4: R25 (TCR, V domains shown)
Valpha: GENVEQHPSTLSVQEGDSAVIKCTYSDSASNYFPWYKQELGKGPQLIIDIRSNVGEKKDQRIAVTLNKTAKHFSLHITETQPEDSAVYFCAAQKTSYDKVIFGPGTSLSVIP
Vbeta: EAQVTQNPRYLITVTGKKLTVTCSQNMNHEYMSWYRQDPGLGLRQIYYSMNVEVTDKGDVPEGYKVSRKEKRNFPLILESPSPNQTSLYFCASSTPGSLNEQFFGPGTRLTVL
  binding result: recognises

B5: R26 (TCR, V domains shown)
Valpha: GQQVMQIPQYQHVQEGEDFTTYCNSSTTLSNIQWYKQRPGGHPVFLIQLVKSGEVKKQKRLTFQFGEAKKNSSLHITATQTTDVGTYFCAGQDYAGKSTFGDGTTLTVKP
Vbeta: DTGVSQNPRHKITKRGQNVTFRCDPISEHNRLYWYRQTLGQGPEFLTYFQNEAQLEKSRLLSDRFSAERPKGSFSTLEIQRTEQGDSAMYLCASSSGGRFYGYTFGSGTRLTVV
  binding result: recognises

B6: R24 (TCR, V domains shown)
Valpha: GQQVMQIPQYQHVQEGEDFTTYCNSSTTLSNIQWYKQRPGGHPVFLIQLVKSGEVKKQKRLTFQFGEAKKNSSLHITATQTTDVGTYFCAVHMNRDDKIIFGKGTRLHILP
Vbeta: EAQVTQNPRYLITVTGKKLTVTCSQNMNHEYMSWYRQDPGLGLRQIYYSMNVEVTDKGDVPEGYKVSRKEKRNFPLILESPSPNQTSLYFCASSLTSFYEQYFGPGTRLTVT
  binding result: recognises
